Data from patent CN116239682A (WUHAN INST OF BIOLOGICAL PRODUCTS CO LTD, dated 2023).

How the values were obtained:
VP1-2D-G = target: T1, VP1-2D-G (Coxsackievirus A4); assay: indirect ELISA on coated mutant peptide (- means ELISA negative)
T1 construct: Synthetic single-site mutant peptide; also called VP1 1-15 peptide, position 2 D-G
T1 peptide: GGAIADAIQNTVTTT

VP1-6D-G = target: T2, VP1-6D-G (Coxsackievirus A4); assay: as above
T2 construct: Synthetic single-site mutant peptide; also called VP1 1-15 peptide, position 6 D-G
T2 peptide: GDAIAGAIQNTVTTT

VP1-4I-G = target: T3, VP1-4I-G (Coxsackievirus A4); assay: as above
T3 construct: Synthetic single-site mutant peptide; also called VP1 1-15 peptide, position 4 I-G
T3 peptide: GDAGADAIQNTVTTT

VP1-3A-G = target: T4, VP1-3A-G (Coxsackievirus A4); assay: as above
T4 construct: Synthetic single-site mutant peptide; also called VP1 1-15 peptide, position 3 A-G
T4 peptide: GDGIADAIQNTVTTT

VP1-11T-G = target: T5, VP1-11T-G (Coxsackievirus A4); assay: indirect ELISA on coated mutant peptide (+ means ELISA positive)
T5 construct: Synthetic single-site mutant peptide; also called VP1 1-15 peptide, position 11 T-G
T5 peptide: GDAIADAIQNGVTTT

VP1-9Q-G = target: T6, VP1-9Q-G (Coxsackievirus A4); assay: as above
T6 construct: Synthetic single-site mutant peptide; also called VP1 1-15 peptide, position 9 Q-G
T6 peptide: GDAIADAIGNTVTTT

VP1-12V-G = target: T7, VP1-12V-G (Coxsackievirus A4); assay: as above
T7 construct: Synthetic single-site mutant peptide; also called VP1 1-15 peptide, position 12 V-G
T7 peptide: GDAIADAIQNTGTTT

VP1-14T-G = target: T8, VP1-14T-G (Coxsackievirus A4); assay: as above
T8 construct: Synthetic single-site mutant peptide; also called VP1 1-15 peptide, position 14 T-G
T8 peptide: GDAIADAIQNTVTGT

VP1-8I-G = target: T9, VP1-8I-G (Coxsackievirus A4); assay: as above
T9 construct: Synthetic single-site mutant peptide; also called VP1 1-15 peptide, position 8 I-G
T9 peptide: GDAIADAGQNTVTTT

VP1-5A-G = target: T10, VP1-5A-G (Coxsackievirus A4); assay: as above
T10 construct: Synthetic single-site mutant peptide; also called VP1 1-15 peptide, position 5 A-G
T10 peptide: GDAIGDAIQNTVTTT

VP1-15T-G = target: T11, VP1-15T-G (Coxsackievirus A4); assay: as above
T11 construct: Synthetic single-site mutant peptide; also called VP1 1-15 peptide, position 15 T-G
T11 peptide: GDAIADAIQNTVTTG

VP1-7A-G = target: T12, VP1-7A-G (Coxsackievirus A4); assay: as above
T12 construct: Synthetic single-site mutant peptide; also called VP1 1-15 peptide, position 7 A-G
T12 peptide: GDAIADGIQNTVTTT

VP1-13T-G = target: T13, VP1-13T-G (Coxsackievirus A4); assay: as above
T13 construct: Synthetic single-site mutant peptide; also called VP1 1-15 peptide, position 13 T-G
T13 peptide: GDAIADAIQNTVGTT

VP1-10N-G = target: T14, VP1-10N-G (Coxsackievirus A4); assay: as above
T14 construct: Synthetic single-site mutant peptide; also called VP1 1-15 peptide, position 10 N-G
T14 peptide: GDAIADAIQGTVTTT

[1] = target: T15, CV-A4结构蛋白VP1的1号肽段 (VP1前1-15氨基酸) (Coxsackievirus A4); assay: indirect ELISA on coated overlapping VP1 peptides, 7H11E 1μg/ml
T15 construct: Synthetic peptide; also called VP1 1-15
T15 peptide: GDAIADAIQNTVTTT

Measured: binding result

B1: 单克隆抗体7H11E (antibody, V domains shown)
VH: SGPGLVAPSQSLSITCTVSGFSLPSYDVHWVRQPPGKGLEWLGVIWAGGSTHYNSALMSRLSISKDNSKSQVFLKMNSLQTDDTAMYYCAGLRAFAMDYWGQGTSVTVSS
VL: PIVLTQSPAILSVSPGERVSFSCRASQSIGTNIHWYQQGANGSPRLLIKYASESISGIPSRFSGSGSGTDFTLSINSVESEDIADYYCQQSNSWPWTFGGGTKLEIQR
notes: Mouse hybridoma antibody purified from ascites, IgG2b subtype; also called 7H11E单克隆抗体
no binding: VP1-2D-G | VP1-6D-G | VP1-4I-G | VP1-3A-G
binds: all other assays above
